Earlier results as cited in patent publication US20200069786A1, “COMPOSITION AND PROCESS FOR PREPARING VACCINE” (TREOS BIO ZRT., priority 2018, published 2020).
Like-named read-outs stand apart in the source and are kept apart here.

Test system: TSA
[1] = TSA expression rate in BLADDER cancer
[2] = TSA expression rate in Cervical cancer
[3] = TSA expression rate in Esophageal
[4] = TSA expression rate in GASTRIC cancer
[5] = TSA expression rate in PROSTATE cancer
[6] = TSA expression rate in HEAD and NECK
[7] = TSA expression rate in LEUKEMIAS
[8] = TSA expression rate in LYMPHOMAS
[9] = TSA expression rate in MELANOMA
[10] = TSA expression rate in PEDIATRIC

B1: EpCAM (protein, UniProt P16422 24-314, looked up)
Epithelial cell adhesion …: QEECVCENYKLAVNCFVNNNRQCQCTSVGAQNTVICSKLAAKCLVMKAEMNGSKLGRRAKPEGALQNNDGLYDPDCDESGLFKAKQCNGTSMCWCVNTAGVRRTDKDTEITCSERVRTYWIIIELKHKAREKPYDSKSLRTALQKEITTRYQLDPKFITSILYENNVITIDLVQNSSQKTQNDVDIADVAYYFEKDVKGESLFHSKKMDLTVNGEQLDLDPGQTLIYYVDEKAPEFSMQGLKAGVIAVIVVVVIAVVAGIVVLVISRKKRMAKYEKAEIKEMGEMHRELNA
BRAIN
  TSA Expression Rate (ER): 16%
BREAST
  TSA Expression Rate (ER): 76%
HCC
  TSA Expression Rate (ER): 41%
LUNG
  TSA Expression Rate (ER): 78%
OVARIAN
  TSA Expression Rate (ER): 92%
PANCREATIC
  TSA Expression Rate (ER): 85%
THYROID
  TSA Expression Rate (ER): 83%
[1]
  Expression Rate (ER) %: 54%
TSA expression rate in CRC
  Expression Rate (ER) %: 88%
[2]
  Expression Rate (ER) %: 36%
[3]
  Expression Rate (ER) %: 81%
[4]
  Expression Rate (ER) %: 90%
TSA expression rate in Kidney
  Expression Rate (ER) %: 55%
[5]
  Expression Rate (ER) %: 98%

B2: MAGE-C1 (protein, UniProt O60732 1-1142, looked up)
Melanoma-associated antigen C1: MGDKDMPTAGMPSLLQSSSESPQSCPEGEDSQSPLQIPQSSPESDDTLYPLQSPQSRSEGEDSSDPLQRPPEGKDSQSPLQIPQSSPEGDDTQSPLQNSQSSPEGKDSLSPLEISQSPPEGEDVQSPLQNPASSFFSSALLSIFQSSPESTQSPFEGFPQSVLQIPVSAASSSTLVSIFQSSPESTQSPFEGFPQSPLQIPVSRSFSSTLLSIFQSSPERTQSTFEGFAQSPLQIPVSPSSSSTLLSLFQSFSERTQSTFEGFAQSSLQIPVSPSFSSTLVSLFQSSPERTQSTFEGFPQSPLQIPVSSSSSSTLLSLFQSSPERTHSTFEGFPQSLLQIPMTSSFSSTLLSIFQSSPESAQSTFEGFPQSPLQIPGSPSFSSTLLSLFQSSPERTHSTFEGFPQSPLQIPMTSSFSSTLLSILQSSPESAQSAFEGFPQSPLQIPVSSSFSYTLLSLFQSSPERTHSTFEGFPQSPLQIPVSSSSSSSTLLSLFQSSPECTQSTFEGFPQSPLQIPQSPPEGENTHSPLQIVPSLPEWEDSLSPHYFPQSPPQGEDSLSPHYFPQSPPQGEDSLSPHYFPQSPQGEDSLSPHYFPQSPPQGEDSMSPLYFPQSPLQGEEFQSSLQSPVSICSSSTPSSLPQSFPESSQSPPEGPVQSPLHSPQSPPEGMHSQSPLQSPESAPEGEDSLSPLQIPQSPLEGEDSLSSLHFPQSPPEWEDSLSPLHFPQFPPQGEDFQSSLQSPVSICSSSTSLSLPQSFPESPQSPPEGPAQSPLQRPVSSFFSYTLASLLQSSHESPQSPPEGPAQSPLQSPVSSFPSSTSSSLSQSSPVSSFPSSTSSSLSKSSPESPLQSPVISFSSSTSLSPFSEESSSPVDEYTSSSDTLLESDSLTDSESLIESEPLFTYTLDEKVDELARFLLLKYQVKQPITKAEMLTNVISRYTGYFPVIFRKAREFIEILFGISLREVDPDDSYVFVNTLDLTSEGCLSDEQGMSQNRLLILILSIIFIKGTYASEEVIWDVLSGIGVRAGREHFAFGEPRELLTKVWVQEHYLEYREVPNSSPPRYEFLWGPRAHSEVIKRKVVEFLAMLKNTVPITFPSSYKDALKDVEERAQAIIDTTDDSTATESASSSVMSPSFSSE
BRAIN
  TSA Expression Rate (ER): 13%
BREAST
  TSA Expression Rate (ER): 16%
HCC
  TSA Expression Rate (ER): 20%
OVARIAN
  TSA Expression Rate (ER): 20%
PANCREATIC
  TSA Expression Rate (ER): 0%
THYROID
  TSA Expression Rate (ER): 22%
[1]
  Expression Rate (ER) %: 27%
[3]
  Expression Rate (ER) %: 12%
[4]
  Expression Rate (ER) %: 6%
[6]
  Expression Rate (ER) %: 15%
TSA expression rate in Kidney
  Expression Rate (ER) %: 0%
[7]
  Expression Rate (ER) %: 70%
TSA expression rate in LUNG cancer
  Expression Rate (ER) %: 19%
[8]
  Expression Rate (ER) %: 13%
[9]
  Expression Rate (ER) %: 45%
[10]
  Expression Rate (ER) %: 39%

B3: SCP3a (protein, UniProt Q8IZU3 1-236, looked up)
Synaptonemal complex protein 3: MVSSGKKYSRKSGKPSVEDQFTRAYDFETEDKKDLSGSEEDVIEGKTAVIEKRRKKRSSAGVVEDMGGEVQNMLEGVGVDINKALLAKRKRLEMYTKASLKTSNQKIEHVWKTQQDQRQKLNQEYSQQFLTLFQQWDLDMQKAEEQEEKILNMFRQQQKILQQSRIVQSQRLKTIKQLYEQFIKSMEELEKNHDNLLTGAQNEFKKEMAMLQKKIMMETQQQEIASVRKSLQSMLF
OVARIAN
  TSA Expression Rate (ER): 25%
[7]
  Expression Rate (ER) %: 47%

B4: MAGE-A1 (protein, UniProt P43355 1-309, looked up)
Melanoma-associated antigen 1: MSLEQRSLHCKPEEALEAQQEALGLVCVQAATSSSSPLVLGTLEEVPTAGSTDPPQSPQGASAFPTTINFTRQRQPSEGSSSREEEGPSTSCILESLFRAVITKKVADLVGFLLLKYRAREPVTKAEMLESVIKNYKHCFPEIFGKASESLQLVFGIDVKEADPTGHSYVLVTCLGLSYDGLLGDNQIMPKTGFLIIVLVMIAMEGGHAPEEEIWEELSVMEVYDGREHSAYGEPRKLLTQDLVQEKYLEYRQVPDSDPARYEFLWGPRALAETSYVKVLEYVIKVSARVRFFFPSLREAALREEEEGV
BRAIN
  TSA Expression Rate (ER): 41%
BREAST
  TSA Expression Rate (ER): 31%
HCC
  TSA Expression Rate (ER): 56%
LUNG
  TSA Expression Rate (ER): 42%
OVARIAN
  TSA Expression Rate (ER): 24%
PANCREATIC
  TSA Expression Rate (ER): 27%
THYROID
  TSA Expression Rate (ER): 17%
[1]
  Expression Rate (ER) %: 34%
TSA expression rate in CRC
  Expression Rate (ER) %: 14%
[2]
  Expression Rate (ER) %: 17%
[3]
  Expression Rate (ER) %: 46%
[4]
  Expression Rate (ER) %: 31%
[6]
  Expression Rate (ER) %: 23%
TSA expression rate in Kidney
  Expression Rate (ER) %: 11%
[7]
  Expression Rate (ER) %: 20%
[8]
  Expression Rate (ER) %: 9%
[9]
  Expression Rate (ER) %: 37%
[10]
  Expression Rate (ER) %: 44%
[5]
  Expression Rate (ER) %: 13%

B5: MAGE-A3 (protein, UniProt P43357 1-314, looked up)
Melanoma-associated antigen 3: MPLEQRSQHCKPEEGLEARGEALGLVGAQAPATEEQEAASSSSTLVEVTLGEVPAAESPDPPQSPQGASSLPTTMNYPLWSQSYEDSSNQEEEGPSTFPDLESEFQAALSRKVAELVHFLLLKYRAREPVTKAEMLGSVVGNWQYFFPVIFSKASSSLQLVFGIELMEVDPIGHLYIFATCLGLSYDGLLGDNQIMPKAGLLIIVLAIIAREGDCAPEEKIWEELSVLEVFEGREDSILGDPKKLLTQHFVQENYLEYRQVPGSDPACYEFLWGPRALVETSYVKVLHHMVKISGGPHISYPPLHEWVLREGEE
BRAIN
  TSA Expression Rate (ER): 42%
BREAST
  TSA Expression Rate (ER): 28%
HCC
  TSA Expression Rate (ER): 34%
LUNG
  TSA Expression Rate (ER): 37%
OVARIAN
  TSA Expression Rate (ER): 30%
PANCREATIC
  TSA Expression Rate (ER): 11%
THYROID
  TSA Expression Rate (ER): 22%
[1]
  Expression Rate (ER) %: 42%
TSA expression rate in CRC
  Expression Rate (ER) %: 22%
[2]
  Expression Rate (ER) %: 16%
[3]
  Expression Rate (ER) %: 66%
[4]
  Expression Rate (ER) %: 37%
[6]
  Expression Rate (ER) %: 40%
TSA expression rate in Kidney
  Expression Rate (ER) %: 27%
[7]
  Expression Rate (ER) %: 65%
[8]
  Expression Rate (ER) %: 17%
[9]
  Expression Rate (ER) %: 60%
[10]
  Expression Rate (ER) %: 76%
[5]
  Expression Rate (ER) %: 15%

B6: PLAC1 (protein, UniProt Q9HBJ0 23-212, looked up)
Placenta-specific protein 1: QSPMTVLCSIDWFMVTVHPFMLNNDVCVHFHELHLGLGCPPNHVQPHAYQFTYRVTECGIRAKAVSQDMVIYSTEIHYSSKGTPSKFVIPVSCAAPQKSPWLTKPCSMRVASKSRATAQKDEKCYEVFSLSQSSQRPNCDCPPCVFSEEEHTQVPCHQAGAQEAQPLQPSHFLDISEDWSLHTDDMIGSM
BREAST
  TSA Expression Rate (ER): 4%
HCC
  TSA Expression Rate (ER): 41%
LUNG
  TSA Expression Rate (ER): 68%
OVARIAN
  TSA Expression Rate (ER): 21%
PANCREATIC
  TSA Expression Rate (ER): 44%
TSA expression rate in CRC
  Expression Rate (ER) %: 27%
[5]
  Expression Rate (ER) %: 100%
